Experimental data: the supplement of paper PMC10724198
± gives the standard deviation of the averaged measurements.

Tests used:
Saccharomyces cerevisiae [1] = assay: protein stability index of tFT-peptide fusion (C-terminal peptide) (PSI (0-1 scale)); higher = more stable (slower turnover)
Method: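 MPS profiling in S. cerevisiae of the tFT-X12 degron library: putative degron peptides plus stable controls, 12 aa, fused to the C-terminus of a sfGFP-mCherry timer. Cells are FACS-sorted into 8 mCherry/sfGFP bins and deep-sequenced. PSI runs from 0 (unstable) to 1 (stable). Backgrounds are wild type, das1Δ and doa10Δ at 30 °C, and wild type, das1Δ, cdc34-1 and cdc53-1 at 37 °C; 2-3 technical replicates each.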

Saccharomyces cerevisiae [2] = assay: as above; details: genetic background: wild type; temperature: 30 C
[3] = genetic background: cdc34-1, temperature: 37 C
[4] = genetic background: cdc53-1, temperature: 37 C
[5] = genetic background: das1 deletion, temperature: 30 C
[6] = genetic background: das1 deletion, temperature: 37 C
[7] = genetic background: doa10 deletion, temperature: 30 C
[8] = genetic background: wild type, temperature: 30 C
[9] = genetic background: wild type, temperature: 37 C
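Further: PSI is a weighted mean of sequencing reads over stability bins, variants kept only with over 10 reads, mCherry proximal and sfGFP distal, peptide attached via GGGS linker.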

| Sequence | protein stability index (Saccharomyces cerevisiae [1]; [3]) | protein stability index (Saccharomyces cerevisiae [1]; [4]) | protein stability index (Saccharomyces cerevisiae [1]; [5]) | protein stability index (Saccharomyces cerevisiae [1]; [6]) | protein stability index (Saccharomyces cerevisiae [1]; [7]) | protein stability index (Saccharomyces cerevisiae [1]; [8]) | protein stability index (Saccharomyces cerevisiae [1]; [9]) | protein stability index (Saccharomyces cerevisiae [2]) |
| --- | --- | --- | --- | --- | --- | --- | --- | --- |
| DHSWGGLLICTC | 0.476 ± 0.011 | 0.492 ± 0.042 | 0.343 ± 0.049 | 0.546 ± 0.022 | 0.33 ± 0.026 | 0.364 ± 0.028 | 0.513 ± 0.017 | 0.473 ± 0.039 |
| DILCGRCMIVGA | 0.592 ± 0.045 | 0.573 ± 0.023 | 0.415 ± 0.041 | 0.6044 ± 0.0056 | 0.393 ± 0.0059 | 0.422 ± 0.011 | 0.555 ± 0.013 | 0.495 ± 0.018 |
| DIRLWISCTLWF | 0.244 ± 0.019 | 0.361 ± 0.043 | 0.25 ± 0.029 | 0.425 ± 0.014 | 0.26 ± 0.0053 | 0.242 ± 0.025 | 0.37 ± 0.019 | 0.324 ± 0.013 |
| DLFVFFVFHFFL | 0.425 ± 0.032 | 0.532 ± 0.029 | 0.372 ± 0.041 | 0.589 ± 0.013 | 0.377 ± 0.015 | 0.38 ± 0.033 | 0.5686 ± 0.0029 | 0.457 ± 0.026 |
| DLRFAWLLSCFS | 0.44 ± 0.017 | 0.47 ± 0.011 | 0.331 ± 0.034 | 0.501 ± 0.014 | 0.293 ± 0.006 | 0.334 ± 0.022 | 0.476 ± 0.0054 | 0.432 ± 0.015 |
| DSSRRKRLICMN | 0.611 ± 0.016 | 0.702 ± 0.032 | 0.656 ± 0.015 | 0.731 ± 0.008 | 0.18 ± 0.016 | 0.21 ± 0.032 | 0.341 ± 0.017 | 0.25 ± 0.093 |
| DVWEHLHKQHNM | 0.704 ± 0.015 | 0.765 ± 0.032 | 0.699 ± 0.024 | 0.753 ± 0.032 | 0.274 ± 0.021 | 0.348 ± 0.053 | 0.62 ± 0.032 | 0.499 ± 0.085 |
| EGVVLLVDCVAT | 0.4623 ± 0.0015 | 0.465 ± 0.02 | 0.301 ± 0.031 | 0.514 ± 0.0093 | 0.26 ± 0.0074 | 0.308 ± 0.02 | 0.492 ± 0.02 | 0.41 ± 0.025 |
| ERRWKRKVIGLC | 0.632 ± 0.034 | 0.736 ± 0.031 | 0.594 ± 0.015 | 0.734 ± 0.0071 | 0.115 ± 0.025 | 0.131 ± 0.0095 | 0.214 ± 0.024 | 0.274 ± 0.047 |
| ERRWVLVAWRFK | 0.555 ± 0.026 | 0.616 ± 0.013 | 0.442 ± 0.031 | 0.619 ± 0.032 | 0.416 ± 0.0077 | 0.442 ± 0.03 | 0.6 ± 0.017 | 0.494 ± 0.02 |
| ESSRNILLWRTI | 0.69 ± 0.041 | 0.7554 ± 0.00093 | 0.641 ± 0.048 | 0.755 ± 0.032 | 0.247 ± 0.046 | 0.264 ± 0.037 | 0.565 ± 0.018 | 0.443 ± 0.073 |
| ETYCLPRVASGI | 0.695 ± 0.021 | 0.733 ± 0.026 | 0.655 ± 0.013 | 0.733 ± 0.029 | 0.666 ± 0.02 | 0.665 ± 0.021 | 0.708 ± 0.02 | 0.733 ± 0.0075 |
| EWAILSLGVMCV | 0.0657 ± 0.03 | 0.118 ± 0.085 | 0.193 ± 0.013 | 0.2 ± 0.0075 | 0.158 ± 0.0049 | 0.184 ± 0.032 | 0.173 ± 0.011 | 0.225 ± 0.014 |
| EYGLLLTLLAYY | 0.4526 ± 0.0018 | 0.508 ± 0.047 | 0.351 ± 0.026 | 0.549 ± 0.0092 | 0.2986 ± 0.0026 | 0.324 ± 0.021 | 0.5128 ± 0.0022 | 0.362 ± 0.044 |
| FCDFLFVFPLFS | 0.562 ± 0.016 | 0.596 ± 0.013 | 0.507 ± 0.019 | 0.6583 ± 0.0028 | 0.589 ± 0.011 | 0.479 ± 0.024 | 0.6321 ± 0.0062 | 0.515 ± 0.22 |
| FCLGFRFFVFFL | 0.26 ± 0.011 | 0.291 ± 0.018 | 0.271 ± 0.027 | 0.408 ± 0.013 | 0.208 ± 0.012 | 0.163 ± 0.022 | 0.288 ± 0.021 | 0.218 ± 0.032 |
| FCRLTFCFFAFL | 0.573 ± 0.051 | 0.646 ± 0.0074 | 0.499 ± 0.019 | 0.641 ± 0.0092 | 0.446 ± 0.017 | 0.438 ± 0.014 | 0.5586 ± 0.00064 | 0.47 ± 0.035 |
| FCTSSRLLYCSA | 0.177 ± 0.0029 | 0.222 ± 0.0037 | 0.206 ± 0.026 | 0.3192 ± 0.00046 | 0.175 ± 0.0018 | 0.202 ± 0.026 | 0.278 ± 0.0096 | 0.302 ± 0.01 |
| FCTVYFVCVWEM | 0.1957 ± 0.0014 | 0.273 ± 0.022 | 0.209 ± 0.043 | 0.393 ± 0.033 | 0.177 ± 0.03 | 0.212 ± 0.015 | 0.362 ± 0.014 | 0.334 ± 0.055 |
| FECLLFVNLLVI | 0.274 ± 0.0029 | 0.345 ± 0.014 | 0.24 ± 0.042 | 0.425 ± 0.018 | 0.153 ± 0.014 | 0.188 ± 0.03 | 0.349 ± 0.012 | 0.288 ± 0.02 |

| Sequence | protein stability index (Saccharomyces cerevisiae [1]; [3]) | protein stability index (Saccharomyces cerevisiae [1]; [4]) | protein stability index (Saccharomyces cerevisiae [1]; [5]) | protein stability index (Saccharomyces cerevisiae [1]; [6]) | protein stability index (Saccharomyces cerevisiae [1]; [7]) | protein stability index (Saccharomyces cerevisiae [1]; [8]) | protein stability index (Saccharomyces cerevisiae [1]; [9]) | protein stability index (Saccharomyces cerevisiae [2]) |
| --- | --- | --- | --- | --- | --- | --- | --- | --- |
| FFCCRLPCLFVL | 0.369 ± 0.016 | 0.407 ± 0.0051 | 0.363 ± 0.027 | 0.4824 ± 0.0016 | 0.174 ± 0.0061 | 0.174 ± 0.011 | 0.194 ± 0.0073 | 0.252 ± 0.022 |
| FFCLFCLSCWVL | 0.403 ± 0.023 | 0.422 ± 0.02 | 0.331 ± 0.015 | 0.444 ± 0.0054 | 0.323 ± 0.011 | 0.312 ± 0.04 | 0.3863 ± 0.0017 | 0.436 ± 0.054 |
| FFCLVEVFVGVF | 0.0707 ± 0.051 | 0.108 ± 0.023 | 0.115 ± 0.044 | 0.177 ± 0.0027 | 0.089 ± 0.018 | 0.0928 ± 0.033 | 0.107 ± 0.014 | 0.2798 ± 0.0012 |
| FFCVLGLSFFCL | 0.609 ± 0.065 | 0.618 ± 0.016 | 0.568 ± 0.021 | 0.58942 ± 0.00014 | 0.554 ± 0.039 | 0.549 ± 0.021 | 0.566 ± 0.016 | 0.542 ± 0.17 |
| FFLFLFFFLRGS | 0.4853 ± 0.0033 | 0.53967 ± 0.00022 | 0.405 ± 0.025 | 0.533 ± 0.035 | 0.419 ± 0.03 | 0.402 ± 0.035 | 0.511 ± 0.021 | 0.467 ± 0.023 |
| FFRVCNALLLVC | 0.0637 ± 0.058 | 0.0334 ± 0.0086 | 0.148 ± 0.026 | 0.152 ± 0.025 | 0.0531 ± 0.0033 | 0.0394 ± 0.01 | 0.0662 ± 0.015 | 0.0759 ± 0.035 |
| FFSFFLSFRLWF | 0.365 ± 0.061 | 0.298 ± 0.024 | 0.433 ± 0.038 | 0.456 ± 0.012 | 0.596 ± 0.04 | 0.429 ± 0.038 | 0.434 ± 0.058 | 0.449 ± 0.11 |
| FFTLSTVKLLRV | 0.497 ± 0.025 | 0.521 ± 0.02 | 0.427 ± 0.022 | 0.552 ± 0.0087 | 0.385 ± 0.0046 | 0.412 ± 0.027 | 0.5379 ± 0.0018 | 0.508 ± 0.044 |
| FFVFVVFFCFGL | 0.321 ± 0.008 | 0.438 ± 0.035 | 0.303 ± 0.023 | 0.444 ± 0.0091 | 0.2809 ± 0.0014 | 0.303 ± 0.0093 | 0.41 ± 0.014 | 0.383 ± 0.047 |
| FGLLLVLASALG | 0.356 ± 0.034 | 0.438 ± 0.026 | 0.318 ± 0.022 | 0.465 ± 0.018 | 0.284 ± 0.024 | 0.307 ± 0.019 | 0.4411 ± 0.0012 | 0.3828 ± 0.0021 |
| FGLMCFIFYVLV | 0.2 ± 0.018 | 0.331 ± 0.03 | 0.236 ± 0.021 | 0.3756 ± 0.0017 | 0.223 ± 0.016 | 0.225 ± 0.018 | 0.337 ± 0.0078 | 0.307 ± 0.057 |
| FHFLFLFSLVSV | 0.294 ± 0.074 | 0.316 ± 0.03 | 0.269 ± 0.038 | 0.412 ± 0.017 | 0.293 ± 0.0034 | 0.279 ± 0.012 | 0.37513 ± 0.00036 | 0.416 ± 0.017 |
| FILLHLLGTIRS | 0.433 ± 0.02 | 0.487 ± 0.0072 | 0.372 ± 0.031 | 0.502 ± 0.023 | 0.337 ± 0.016 | 0.352 ± 0.026 | 0.4948 ± 0.0018 | 0.438 ± 0.016 |
| FIMHRIFMALVI | 0.386 ± 0.055 | 0.415 ± 0.03 | 0.381 ± 0.042 | 0.4786 ± 0.0006 | 0.29 ± 0.017 | 0.253 ± 0.025 | 0.359 ± 0.0092 | 0.341 ± 0.14 |
| FLFCMIFIFRCF | 0.216 ± 0.011 | 0.196 ± 0.026 | 0.233 ± 0.031 | 0.339 ± 0.025 | 0.203 ± 0.025 | 0.165 ± 0.015 | 0.252 ± 0.022 | 0.276 ± 0.1 |
| FLFLFIFYFFCC | 0.269 ± 0.046 | 0.367 ± 0.0077 | 0.327 ± 0.024 | 0.476 ± 0.02 | 0.315 ± 0.0036 | 0.314 ± 0.032 | 0.401 ± 0.06 | 0.389 ± 0.083 |
| FLFLSPLALHVS | 0.444 ± 0.03 | 0.494 ± 0.014 | 0.412 ± 0.022 | 0.513 ± 0.014 | 0.177 ± 0.0097 | 0.212 ± 0.024 | 0.256 ± 0.011 | 0.304 ± 0.01 |
| FLIVLLVIFFGF | 0.275 ± 0.0072 | 0.387 ± 0.019 | 0.276 ± 0.023 | 0.367 ± 0.023 | 0.275 ± 0.018 | 0.269 ± 0.04 | 0.357 ± 0.018 | 0.324 ± 0.006 |
| FLLASSRRICCS | 0.458 ± 0.0088 | 0.486 ± 0.029 | 0.365 ± 0.025 | 0.5347 ± 0.001 | 0.249 ± 0.015 | 0.269 ± 0.028 | 0.47 ± 0.013 | 0.391 ± 0.0082 |
